In patent publication US20140080161A1, “PHOSPHATASE COUPLED KINASE ASSAY” (RESEARCH AND DIAGNOSTIC SYSTEMS, INC., priority 2010, published 2014):

Columns and labels:
[1] = Phosphatase coupled kinase assay, ERK1 specific activity; assay type: biochemical; conditions: 4 mM ATP, 4 mM MBP peptide
Procedure: (§1) The kinase reactions were carried out in 50 μL of kinase assay buffer including 25 mM Tris, 150 mM NaCl, 5 mM MgCl2, and 5 mM CaCl2 at pH 7.5 in a 96 well plate at room temperature. Each reaction was stopped with 30 μL of Malachite Reagent A and 100 μL of water. The color was developed with 30 μL Malachite Reagent B. The plate was read at 620 nm with a multi-well plate reader. If the predicted phosphate content in the reaction was above 4,000 pmol, the reaction was diluted before phosphate detection.
A series of reactions were performed with extracellular signal-regulated kinase 1 (ERK1) as the kinase. Various amounts of ERK1 (0, 0.1, 0.2, 0.4 and 0.8 μg) were combined with 4 mM ATP, 4 mM MBP peptide acceptor substrate, and 0.2 μg CD39L2. […] The reactions were stopped after 20 minutes, the Malachite Green assay was performed as described above, and the OD was measured at 620 nm. The results are shown in FIG. 10, wherein the OD reading is plotted against the quantity of ERK1. This plot was then used to determine the specific activity of ERK1. The specific activity was calculated by first determining the slope of the curve (0.7728 OD/μg), which was then multiplied by a conversion factor (4081 pmol/OD) and divided by the reaction time (20 minutes) (0.7728 OD/μg×4081 pmol/OD/20 min=157.69 pmol/min/μg). The coupling efficiency of rhCD39L2 in 4 mM ATP was predicted to be 0.4 based on the data of Example 3 (FIG. 5). The specific activity of the ERK1 was then adjusted for the coupling efficiency and was calculated to be 394.22 pmol/min/μg. (157.69 pmol/min/μg/0.4=394.22 pmol/min/μg)

[2] = ADP hydrolysis curve with increasing amounts of phosphatase, free phosphate by Malachite Green; assay type: biochemical; conditions: 5 minutes
Source text: The relative activity of the phosphatase on ADP and ATP can be measured by creating hydrolysis curves for ADP and ATP. For example, such hydrolysis curves may be created by performing a series of reactions separately combining set quantities of ADP or ATP with varying quantities of phosphatase and detecting the free phosphate produced. An example of such curves is described in Example 1 below. The resulting phosphate levels (or OD readings, which directly correspond to the phosphate levels) can be plotted against the amount of phosphatase used. The phosphate level or OD readings can be compared at the same quantity of the phosphatase to determine the relative activity of the phosphatase for ADP as compared to ATP. […] The amount of phosphatase to be used for kinase reactions is preferably selected from within the rapidly rising portion of the ADP hydrolysis curve. In addition, the relative activity of the phosphatase for ADP versus ATP is preferably compared within this rapidly rising portion of the hydrolysis curve, at or near the steepest portion of the curve. At phosphatase levels below this range, the generated signals are weak, while at phosphatase levels above this range, the ADP hydrolysis approaches completion, which could underestimate the activity of the phosphatase on ADP due to exhaustion of the substrate.
as §1
In this experiment, the relative activity of rhCD39L2 on ADP and ATP was determined. In a first series of reactions, 100 nmol of 2 mM ATP was combined with increasing amounts of rhCD39L2 (0.03125 μg, 0.0625 μg, 0.125 μg, 0.25 μg, 0.5 μg) for 20 minutes. Likewise in a second series of reactions, 100 nmol of 2 mM ADP was combined with the same increasing amounts of rhCD39L2 for 20 minutes. The reactions were stopped after 20 minutes and free phosphate was measured using the Malachite Green assay as described above.
The relative activity of recombinant mouse CD 39L2 (rmCD39L2) on ADP and ATP was determined in a series of reactions similar to Example 1. 100 nmol of 2 mM ATP was combined with increasing amounts of rmCD39L2 (0.03125 μg, […], 0.125 0.25 μg, 0.5 μg). Likewise in a second series of reactions, 100 nmol of 2 mM ADP was combined with the same increasing amounts of rmCD39L2. The reactions were stopped after 5 minutes and free phosphate was measured using the Malachite Green assay as described above.
The experiment of Example 1 was repeated using recombinant human CD39L4 (rhCD39L4). 100 nmol of ATP (2 mM) was combined with increasing amounts of rhCD39L4 (0.03125 μg, 0.0625 μg, 0.125 μg, 0.25 μg, 0.5 μg, 1.0 μg). Likewise in a second series of reactions, 100 nmol of ADP (2 mM) was combined with the same increasing amounts of rhCD39L4 for 5 minutes. The reactions were stopped after 5 minutes and free phosphate was measured using the Malachite Green assay as described above. […] As such, the necessary preference of the phosphatase for ADP as compared to ATP is present.

[3] = Specific activity of the phosphatase (free phosphate released per time per amount); assay type: biochemical
Source text: Phosphatases used in embodiments of the invention have a high specific activity on ADP. The specific activity of the phosphatase used in the examples is the amount of free phosphate released from a substrate per unit time and per amount of phosphatase under a given set of conditions, and may be determined at the rising phase of an enzymatic dose curve, such as the hydrolysis curve as described above. In some embodiments, the phosphatase has a specific activity of greater than 100 pmol/min/μg under optimal conditions. The conditions may include optimal pH, salt concentrations, and the presence of any cofactor. In other embodiments, the phosphatase has a specific activity of greater than 1,000 pmol/min/μg. In still other embodiments, the phosphatase has a specific activity of greater than 20,000 pmol/min/μg. When phosphatases having lower specific activity are used, larger amounts of such phosphatases or longer reaction times may be used to achieve the same level of hydrolysis as can be achieved with a phosphatase having higher specific activity.

[4] = enzyme as obtained from R&D Systems; cited from earlier work

## ERK1: extracellular signal-regulated kinase 1 from R&D Systems
[1]; 0.2 μg CD39L2, 20 minutes
  slope of the curve OD versus quantity of ERK1: 0.7728 OD/μg
[1]; 20 minutes
  specific activity before coupling efficiency adjustment: 157.69 pmol/min/µg
[1]; coupling efficiency 0.4
  specific activity adjusted for the coupling efficiency: 394.22 pmol/min/µg

B1: rhCD39L4: recombinant human CD39L4 phosphatase (protein, UniProt O75356 25-428, looked up)
Nucleoside diphosphate …: NQQTWFEGIFLSSMCPINVSASTLYGIMFDAGSTGTRIHVYTFVQKMPGQLPILEGEVFDSVKPGLSAFVDQPKQGAETVQGLLEVAKDSIPRSHWKKTPVVLKATAGLRLLPEHKAKALLFEVKEIFRKSPFLVPKGSVSIMDGSDEGILAWVTVNFLTGQLHGHRQETVGTLDLGGASTQITFLPQFEKTLEQTPRGYLTSFEMFNSTYKLYTHSYLGFGLKAARLATLGALETEGTDGHTFRSACLPRWLEAEWIFGGVKYQYGGNQEGEVGFEPCYAEVLRVVRGKLHQPEEVQRGSFYAFSYYYDRAVDTDMIDYEKGGILKVEDFERKAREVCDNLENFTSGSPFLCMDLSYITALLKDGFGFADSTVLQLTKKVNNIETGWALGATFHLLQSLGISH
[2]; Example 9, up to 1.0 μg
  level of activity compared with rhCD39L2: lower level of activity than rhCD39L2
[3]
  specific activity on ADP: > 1,000 pmol/min/μg

B2: rmCD39L2: recombinant mouse CD39L2 phosphatase (protein, UniProt Q3U0P5 1-455, looked up)
Ectonucleoside triphosphate …: MRKIPNHGTLRMTKVAYPLGLCVGLFIYVAYIKWHRASAAQAFFTIAGAASGARWTQQAFSSPGSAARGHEVFYGIMFDAGSTGTRIHVFQFARPPGETPTLTHETFKALKPGLSAYADDVEKSAQGIQELLNVAKQHIPYDFWKATPLVLKATAGLRLLPGEKAQKLLQKVKEVFKASPFLVGDDCVSIMNGTDEGVSAWITVNFLTGSLKTPGSSSVGMLDLGGGSTQITFLPRVEGTLQASPPGHLTALQMFNRTYKLYSYSYLGLGLMSARLAILGGVEGKPAENDKELVSPCLSPRFRGEWEHAEVTYRISGQKAVGLYELCASRVSEVLRNKVHRTEEAQHVDFYAFSYYYDLAASFGLIDAEKGGSLVVGDFEIAAKYVCRTLETQPPSSPFACMDLTYISLLLHEFGFPGDKVLKLARKIDNVETSWALGAIFHYIDSLKRQKVPAL
[4]
  specific activity: > 100,000 pmol/min/μg
[2]; phosphatase at 0.25 μg
  times greater activity with ADP than with ATP: 30-40 times
